Measurements published in patent US20030027246A1, “Immunogenic peptides derived from prostate-specific membrane antigen (PSMA) and uses thereof” (priority 2000, published 2003).
Marks after values point to notes of the source that are not given here.

What was measured:
A2Kb transgenic mouse = assay: Immunogenicity of PSMA derived peptides in A2Kb transgenic mice (51Cr-release CTL assay); type: in vivo; conditions: 100.0 μg peptide + I-Ab-restricted peptide in IFA s.c.; splenocytes re-stimulated 6-7 days; 4 hr 51Cr-release vs peptide-pulsed P815-A2Kb targets
Description: The A2Kb transgenic mouse was used to assess the immunogenicity of the HLA-A0201 binding PSMA peptides. Mice of the B1O background (transgenic for the A2Kb chimeric gene) were purchased from the Scripps Clinic in California, USA. Mice were injected subcutaneously at the base of the tail with a dose of inoculum prepared by emulsifying 100.0 μg of the test peptide and 100.0 μg of an I-A^b-restricted peptide (described in Milich, D. R. et al. (1987) J. Immunol 139: 1223-1231) in incomplete Freund's adjuvant (IFA). Spleens of the experimental animals were collected on the 10th or 11th day post immunization. Spleenocytes of the experimental mice were prepared and cultured to enrich for CTLs before being assessed for effector activity. In vitro re-stimulation of the in vivo generated CTLs was performed by co-culturing in a 25 cm^2 tissue culture flask 3×10^7 responder cells (i.e. spleenocytes) with 1.3×10^7 irradiated autologous LPS (lipopolysaccharide)-blasts which had been pulsed with the respective peptide (100.0 μg per 10^8 cells). Cultures were kept in a 37° C., humidified CO2 incubator for 6-7 days before being tested for effector function in a standard 4 hr in vitro ^51Cr-release CTL assay as follows. […] Supernatant aliquots were then removed and counted for radioactivity.

[1] = target: T1, HLA-A0201 molecules on T2 cells (Homo sapiens, UniProt P04439, D140Y/D185E/D98H/E176V/E277Q/G131W/G231S/I119V/I121R/I166T/I218V/L300P/L318F/N151K/N90K/P208A/P217A/Q86G/Q94H/R138H/R169H/T345S); assay: HLA-A0201 binding/stabilization of PSMA derived peptides on T2 cells (BB7.2 flow cytometry); type: cell-based; conditions: for Fluorescence Index (FI): T2 cells; for HLA-A0201 binding as judged by Fluorescence Index (FI) values: membrane-bound HLA-A0201 on T2 cells, result in words
T1 construct: endogenous in cells; host or cells: T2 cell line (Dr. Peter Creswell, Yale University)
Description: The ability of the PSMA derived peptides described in Table 1 to stabilize membrane-bound HLA-A0201 molecule was assessed utilizing the T2 cell line (Dr. Peter Creswell, Yale University). The cell line has been well documented to have a defective TAP (i.e. Transporter for Antigen Processing) transporter function. […] The stability of the surface HLA-A0201 molecules can be restored upon interaction with suitable exogenous peptides. The stabilization of the conformation of the class 1 MHC molecules is accompanied by the formation of an immunodominant epitope recognized by a mouse monoclonal antibody (designated BB7.2; American Type Culture Collection (ATCC)). Thus, the detection of this specific epitope is indicative of stable membrane-bound HLA-A0201 molecules loaded with peptide.
T2 cells were propagated in Iscove's complete medium (Iscove's medium supplemented with 10% heat-inactivated bovine serum, 120.0 units per ml of penicillin G sodium, 120 μg per ml of streptomycin sulphate, and 0.35 mg per ml of L-glutamine). The ability of PSMA peptides (Table 1) to bind and stabilize surface HLA-A0201 molecules on T2 cells was determined utilizing a protocol documented in the art (Deng, Y. (1997) J Immunol 158:1507-1515). In essence, 0.5×10^6 T2 cells were incubated with 125.0 μM of the test peptide in 200.0 μl of serum-free culture medium (Iscove's medium supplemented with 120.0 units per ml of penicillin G sodium, 120.0 μg per ml of streptomycin sulphate and 0.35 mg per ml of L-glutamine) overnight at 37° C. Subsequently, cells were washed twice with Iscove's medium (without bovine serum) to remove free PSMA peptide. To the cell pellet was added 1.0 ml of complete Iscove's medium (supplemented with fetal bovine serum (10% final)) containing 5.0 μg per ml of brefeldin A (Sigma), 12.5 μg per ml of anisomycin (Sigma) and 5.0 μg per ml of cyclohexamide (Sigma). […] The cells were subsequently incubated 30 min on ice prior to two washes with ice-cold PBA (phosphate buffered saline (pH 7.2) containing 2.0% bovine serum). 100.0 μl of PBA containing 5.0 μg of monoclonal antibody BB7.2 was added to each test sample. The reaction was allowed to proceed on ice for 45 min. Cells were then washed three times with ice-cold PBA. The binding of BB7.2 was detected via the addition of 100.0 μl of PBA containing 1.0 μg of goat anti-mouse IgG-Fc fluorescein (FITC) conjugate (BETHYL Laboratories Inc.). After a 30 min incubation on ice, cells were twice washed with ice-cold PBA, and twice with ice-cold PBS (pH 7.2). Cells were immediately fixed by the addition of 50.0 μl of 1.0% paraformaldehyde. Samples were analyzed by Flow Cytometry. Results were expressed in units of Fluorescence Index (FI), calculated by the equation: [formula]
An FI value of 0.5 or greater was deemed to be significant.

[2] = 125.0 μM test peptide, overnight at 37° C., then 3.0 hr de-stabilization step, FI of 0.5 or greater deemed significant

Fluorescence Index (FI) [1, 2]	HLA-A0201 binding as judged by Fluorescence Index (FI) values [1]	Sequence	also measured
		ALFDIESKV (CLP337) [CLP-337, PSMA derived peptide, amino acid position 711-719]	Immunogenicity: epitope-specific CTL responses (FIG. 1) (A2Kb transgenic mouse): immunogenic and capable of eliciting epitope-specific CTL responses
0.7	demonstrated HLA-A0201 binding	ELAHYDVLL (CLP330) [CLP-330, PSMA derived peptide, amino acid position 109-117]	
	does not exhibit binding	LDSVELAHY (CLP324) [CLP-324, reference compound]	Fluorescence Index (FI) ([1]; 125.0 μM peptide, analysis did not include 3 hr de-stabilization step): 0**
	demonstrated HLA-A0201 binding	LLHETDSAV [CLP-326]	
	demonstrated HLA-A0201 binding	LMYSLVHNL [CLP-333]	
	demonstrated HLA-A0201 binding	MMNDQLMFL [CLP-336]	Immunogenicity: epitope-specific CTL responses (FIG. 1) (A2Kb transgenic mouse): immunogenic and capable of eliciting epitope-specific CTL responses
0		NLNGAGDPL [CLP-331]	
0		NMKAFLDEL [CLP-329]	
0		PMFKYHLTV [CLP-334]	
1.3	demonstrated HLA-A0201 binding	VLAGGFFLL (CLP328) [CLP-328, PSMA derived peptide, amino acid position 27-35]	
0.3		VLRMMNDQL [CLP-335]	
0		WLCAGALVL (CLP327) [CLP-327, PSMA derived peptide, amino acid position 20-28]	
